Here are results for 1 molecule from CN110218251A (FUZHOU MAIXIN BIOTECHNOLOGY DEV CO LTD, dated 2019).

The assay has as its target T1, MSH2蛋白 (endogenous, in HCT8 and Biu-87 cell lysates and in human tissue sections) (human, UniProt P43246 2-934).
T1 construct: Endogenous protein; also called MutS homolog 2
The assay can be described thus: IHC on tonsil tissue.

T1 sequence (P43246 2-934 limits assumed): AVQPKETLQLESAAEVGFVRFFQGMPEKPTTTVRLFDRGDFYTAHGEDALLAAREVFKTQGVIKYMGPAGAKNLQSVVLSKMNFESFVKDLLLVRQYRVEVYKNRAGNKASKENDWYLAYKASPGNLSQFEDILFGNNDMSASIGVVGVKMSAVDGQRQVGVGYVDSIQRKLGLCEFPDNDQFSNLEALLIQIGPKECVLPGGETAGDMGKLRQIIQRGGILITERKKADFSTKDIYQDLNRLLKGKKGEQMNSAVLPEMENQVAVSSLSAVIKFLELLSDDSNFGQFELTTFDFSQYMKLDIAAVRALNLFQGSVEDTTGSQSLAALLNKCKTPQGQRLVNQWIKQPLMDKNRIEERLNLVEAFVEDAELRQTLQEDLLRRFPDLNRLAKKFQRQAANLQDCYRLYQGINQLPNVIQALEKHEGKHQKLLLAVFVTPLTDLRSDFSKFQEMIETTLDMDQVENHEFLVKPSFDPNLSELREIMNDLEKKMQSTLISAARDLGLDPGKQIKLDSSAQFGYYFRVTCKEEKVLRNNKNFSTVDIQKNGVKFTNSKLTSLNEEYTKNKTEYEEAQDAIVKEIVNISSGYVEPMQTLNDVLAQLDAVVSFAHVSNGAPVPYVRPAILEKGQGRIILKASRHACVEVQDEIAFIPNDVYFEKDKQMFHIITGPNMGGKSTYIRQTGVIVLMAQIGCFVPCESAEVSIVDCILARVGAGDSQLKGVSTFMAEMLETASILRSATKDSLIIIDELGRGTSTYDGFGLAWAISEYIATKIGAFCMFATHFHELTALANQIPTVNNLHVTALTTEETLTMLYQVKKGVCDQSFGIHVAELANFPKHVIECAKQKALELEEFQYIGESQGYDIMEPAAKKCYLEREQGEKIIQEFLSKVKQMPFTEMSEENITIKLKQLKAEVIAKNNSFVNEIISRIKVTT

B1: 抗MSH2蛋白单克隆抗体(1B11-14-16) (antibody, V domains shown)
VH: QVQLQQSGAELMKPGASVRISCKATGYTFTRYWIEWVKERPGHGLEWIGEILPGSGGTNYNEKFKGKATFTADTSSNTVHMQLNSLTSEDSAVYYCVKREGPYWGRGTLVTVSA
VL: DVLMTQTPLSLPVSLGDQASISCRSSQSIVYRTGSTFLEWYLQKPGQSPKLLIYKVSNRFSGVPDRFSGSGSGTDFTLKISRVEAEDLGVYYCFQGSHLPYTFGGGTKLEIK
notes: also called MSH2(1B11-14-16)单克隆抗体; 1B11-14-16的MSH2
On to B1, for which the binding result was “binds”.
